# Measured values from paper PMC9942874 (Immunity, 2023).
# Changes are numbered by the printed parent chain.
# B1: RUPA-32 (antibody, V domains shown)
# VH: EVQLVESGGGLVKPGGSLRLSCAASGFAFSTYAMSWVRQAPGKGLEWVSSISESSSYTYYTDSVKGRFTISRDNAKKSLFLHMNSLRAEDTAVYYCARSDGLSMIAAPFDYWGQGARVTVSS
# VL: EIVLTQSPATLSLSPGERATLSCRTSQSLSISLVWYQQKPGQAPRLLISDASNRAPGIPARFSASGSGTDFTLTISSLEPEDFAVYYCQQRSNWPPITFGQGTRLEMK
# notes: also called RUPA-32 (IgG1)
# B2: RUPA-103 (antibody, V domains shown)
# VH: EVQLVESGGGLVKPGGSLRLSCAASGFTFSSYSMNWVRQAPGKGLEWVSSISSGSSYKYYSDSVKGRFTISRDNAKNSLYLQMNTLRAEDTAVYYCARAPEPGLLWFGEWGDYWGQGTLVTVSS
# VL: EIVLTQSPVTLSLSPGERATLSCRASQSISSSLAWYQQKPGQAPRLLIYDASNRATGIPARFSGSGSGTDFTLTISSLEPEDFAVYYCQQRSIWPPITFGQGTRLEIQ
# notes: also called RUPA-103 (IgG1)
# B3: RUPA-115 (antibody, V domains shown)
# VH: EVQLVESGGGLVQPGRSLRLFCAASGFNFDDYAMHWVRQAPGKGLEWVSGISWNSGTLAYADFVMGRFTISRDTAKNSLYLQMNSLRAEDTAFYYCAKDLKKYISSSLDYWGQGTLVTVFS
# VL: QSALTQPRSVSGSPGQSVTISCTGTSSDVGAYNFVSWFQHHPGKAPKLMIYDVTKRPSGVPDRFSASKSGNTASLTISGLQAEDEAEYYCCSYAGTYHVVFGGGTKLTVL
# notes: also called RUPA-115 (IgG1)
# B4: RUPA-126 (antibody, V domains shown)
# VH: QVQLVQSGAEVKKPGASVTVSCKASGYTFTDYYLHWVRQAPGHGLEWMGWINPNSGITEYAQKFQGRVTVTRDTSISTIYMDLSRLRSDDTAIYYCVRRERGSPYTLFDYWGQGTLVIVSS
# VL: QSVLTQPPSASGTPGQRVTISCSGGDSNIGTNYGYWYQQFPGTAPKLLIYWNNRRPSGVPDRFSGSKSGTSVFLAISGLRSEDEADYYCAAWDDSLSAPVFGGGTKLTVI
# notes: also called RUPA-126 (IgG1)
# B5: RUPA-133 (antibody, V domains shown)
# VH: QVQLVQSGAEVKKPGASVNVSCMPSGYTFSDYFLHWVRQAPGQGLEWMGWINPNSGLTKYAQKFQGRVTMTSDTSISTVYLDLSRLRSDDTAIYFCVRRERGSPYTLFDYWGQGTLVTVSS
# VL: B4 VL with D26A, G34V, F40L, F73S, A98G
# notes: also called RUPA-133 (IgG1)
# B6: RUPA-33 (antibody, V domains shown)
# VH: EVQLVESGGGLVQPGRSLRLSCAASGFTFDDYAVHWVRQVPGKGLEWVSGISWNSATLAYADSVTGRFTISRDNARNSLYLQMNSLRIEDTALYYCARALPERTYGHRAFDYWGRGTQVTVSS
# VL: QSALTQPRSVSGSPGQSVTISCTGTSSDVGYFTFVSWYQQHPGEVPKLIIYDVTKRPSGVPDRFSGSKSGNTASLTISGLQSDDEADYYCCSYAGTYHIRFGGGTKLTVL
# notes: also called RUPA-33 (IgG1)
# B7: RUPA-38 (antibody, V domains shown)
# VH: EVQLVESGGGLVQPGRSLRLSCAVSGFNFEDYAMHWVRQTPGKGLEWVSGISWNSGTLAYGDFVQGRFIISRDNAKNFLYLQMNSLRPEDTALYYCANDRMRWIQVPHYWGQGTLVTVSS
# VL: B3 VL with Q1L, S26N, S27D, A31E, F34Y, F38Y, H40Q, E87N, V99M
# notes: also called RUPA-38 (IgG1)
# B8: RUPA-39 (antibody, V domains shown)
# VH: DVQLVESGGGLVKPGGSLRLSCAASGFTFSSYTMNWVRQAPGKGLEWVSSISTNIRYIYYADSVKGRFTISRDNAKNSLFLQMDSLRAEDTAVYYCATIAGPLSLKGDFYFDSWGQGTLVTVSS
# VL: EIVMTQSPATLSVSPGERATLSCRASQSVSSSLAWYQQKPGQAPRLLIHGASTRATGIPTRFSGSGSGTEFTLTISSLQSEDFAVYYCQQYANWPPWTFGQGTKVESK
# notes: also called RUPA-39 (IgG1)
# B9: RUPA-55 (antibody, V domains shown)
# VH: B8 VH with S30N, Y110F, S124P
# VL: B8 VL
# notes: also called RUPA-55 (IgG1)
# B10: RUPA-62 (antibody, V domains shown)
# VH: EVQLVESGGGLVQPGRSLRLSCAASGFTFDDYAMHWVRQAPGKGLEWVSGISWNSGSIGYADSVNGRFTISRDNAKKSLYLQMNSLRPEDTALYYCAKDTHEYSSSPGDYWGQGTLVTVSS
# VL: B3 VL with A31G, N33T, F38S, H40Q, T54S, A66G, E87D
# notes: also called RUPA-62 (IgG1)
# B11: RUPA-73 (antibody, V domains shown)
# VH: EPQLVESGGGLVQPGRSLRLSCAGSGFTFGDYAMHWVRQAPGKGLEWVSGISWNSGTLAYAVFVEGRFTISRDNAKNSLYLQMNSLRPEDTAFYYCAKDVKNYVSGGCSDWGQGSLVTVSS
# VL: B3 VL with A31G, N33E, F38Y, H40Q, H41Y, M49I, D62A, R63H, E87D, V100L
# notes: also called RUPA-73 (IgG1)
# B12: RUPA-96 (antibody, V domains shown)
# VH: B3 VH with F21S, A24V, N28T, D31N, M83L, A88T, F93L, L100I, K102M
# VL: B3 VL with I20V, S26N, M49I, V53I
# notes: also called RUPA-96 (IgG1)
# B13: RUPA-135 (antibody, V domains shown)
# VH: EVQLVDSGGGLVQPGGSLKLTCATSGFFFSGSAMHWVRQASGKGLEWVGRIRSKGNNYATAYAASVKGRFTISRDDSKNTAYLQMDSLKTEDTAVYYCSSRNSKVPDYWGQGTLVTVSS
# VL: QSVLTQPPSASGTPGQRVTIFCSGSSSNIGSNFVYWYQQLPGAAPKLLIYRNHQRPSGVPDRLSGSKSGTSASLAISGLRSEDEADYYCAAWDDSLNVQVFGGGTKVTVL
# notes: also called RUPA-135 (IgG1)
# B14: RUPA-136 (antibody, V domains shown)
# VH: EVQLVESGGGLVRPGGSLRLSCAASGFNFSAYGMNWVRQAPGRGLEWISYISHNTSIIHYADSVKGRFTISRDNGANSLYLQLNTLRDGDTAVYYCVRDCATLIGGRLPICQYFFDYWGQGALVTVSS
# VL: SYELTQPSSVSVSLGQTASITCSGDMLTGKYVRWFQQKPGQAPILVIYKDRKRPSGIPDRFSGSSSGTTVTLIINGARIEDEADYYCYSAAARKRVFGGGTKLTVL
# notes: also called RUPA-136 (IgG1)
# B15: RUPA-137 (antibody, V domains shown)
# VH: QITLKESGPALVKPTQTLTLTCTFSGFSLTSSGVGVVWVRQPPEKALEWLALIYWDDDRRYSPSLETRLNISKDTSKNQVVLTMTNMDPLDTATYFCAHSRASGWYGYWGQGTLVTVSS
# VL: QSVLTQPPSASGTPGQRVTISCSGSRSNLGTNFVYWYQQLPGTAPKLLIYKNYQRPSGVPDRFSGSKSGTSASLSISGLRSEDEADYYCAAWDDNLNGFYVFGTGTKLTVV
# notes: also called RUPA-137 (IgG1)
# B16: 15C5 (IgG1) (antibody, V domains shown)
# VH: DVQLQESGPGLVNPSQSLSLTCSVTGYSITSDYYWNWIRQFPGNKLEWMGYITYDGTNNYNPFFKNRISITRDTSQNQFFLKLNSVTTEDTATYYCARDGRYWYFDVWGAGTTVTVSS
# VL: QIVLTQSPTLMSAFPGEKVTMTCSASSSVSYMYWYQQKPGSSPKPWIYLTSNLASGVPARFSGSGSGTSYSLTISSMEAEDAATYYCQQWNNSPPTFGAGTKLELK
# notes: also called humanized analog of the 15C5 mouse mAb
# Target: native Pfs230 (gametocyte extract) (Plasmodium falciparum NF54 (3D7 is its …, UniProt P68874))
# Assay: […]; 5 μg/ml mAb in PBST; […]
# Details: one partner purified
# Chain of native Pfs230 (gametocyte extract) (Plasmodium falciparum NF54 (P68874 21-3135): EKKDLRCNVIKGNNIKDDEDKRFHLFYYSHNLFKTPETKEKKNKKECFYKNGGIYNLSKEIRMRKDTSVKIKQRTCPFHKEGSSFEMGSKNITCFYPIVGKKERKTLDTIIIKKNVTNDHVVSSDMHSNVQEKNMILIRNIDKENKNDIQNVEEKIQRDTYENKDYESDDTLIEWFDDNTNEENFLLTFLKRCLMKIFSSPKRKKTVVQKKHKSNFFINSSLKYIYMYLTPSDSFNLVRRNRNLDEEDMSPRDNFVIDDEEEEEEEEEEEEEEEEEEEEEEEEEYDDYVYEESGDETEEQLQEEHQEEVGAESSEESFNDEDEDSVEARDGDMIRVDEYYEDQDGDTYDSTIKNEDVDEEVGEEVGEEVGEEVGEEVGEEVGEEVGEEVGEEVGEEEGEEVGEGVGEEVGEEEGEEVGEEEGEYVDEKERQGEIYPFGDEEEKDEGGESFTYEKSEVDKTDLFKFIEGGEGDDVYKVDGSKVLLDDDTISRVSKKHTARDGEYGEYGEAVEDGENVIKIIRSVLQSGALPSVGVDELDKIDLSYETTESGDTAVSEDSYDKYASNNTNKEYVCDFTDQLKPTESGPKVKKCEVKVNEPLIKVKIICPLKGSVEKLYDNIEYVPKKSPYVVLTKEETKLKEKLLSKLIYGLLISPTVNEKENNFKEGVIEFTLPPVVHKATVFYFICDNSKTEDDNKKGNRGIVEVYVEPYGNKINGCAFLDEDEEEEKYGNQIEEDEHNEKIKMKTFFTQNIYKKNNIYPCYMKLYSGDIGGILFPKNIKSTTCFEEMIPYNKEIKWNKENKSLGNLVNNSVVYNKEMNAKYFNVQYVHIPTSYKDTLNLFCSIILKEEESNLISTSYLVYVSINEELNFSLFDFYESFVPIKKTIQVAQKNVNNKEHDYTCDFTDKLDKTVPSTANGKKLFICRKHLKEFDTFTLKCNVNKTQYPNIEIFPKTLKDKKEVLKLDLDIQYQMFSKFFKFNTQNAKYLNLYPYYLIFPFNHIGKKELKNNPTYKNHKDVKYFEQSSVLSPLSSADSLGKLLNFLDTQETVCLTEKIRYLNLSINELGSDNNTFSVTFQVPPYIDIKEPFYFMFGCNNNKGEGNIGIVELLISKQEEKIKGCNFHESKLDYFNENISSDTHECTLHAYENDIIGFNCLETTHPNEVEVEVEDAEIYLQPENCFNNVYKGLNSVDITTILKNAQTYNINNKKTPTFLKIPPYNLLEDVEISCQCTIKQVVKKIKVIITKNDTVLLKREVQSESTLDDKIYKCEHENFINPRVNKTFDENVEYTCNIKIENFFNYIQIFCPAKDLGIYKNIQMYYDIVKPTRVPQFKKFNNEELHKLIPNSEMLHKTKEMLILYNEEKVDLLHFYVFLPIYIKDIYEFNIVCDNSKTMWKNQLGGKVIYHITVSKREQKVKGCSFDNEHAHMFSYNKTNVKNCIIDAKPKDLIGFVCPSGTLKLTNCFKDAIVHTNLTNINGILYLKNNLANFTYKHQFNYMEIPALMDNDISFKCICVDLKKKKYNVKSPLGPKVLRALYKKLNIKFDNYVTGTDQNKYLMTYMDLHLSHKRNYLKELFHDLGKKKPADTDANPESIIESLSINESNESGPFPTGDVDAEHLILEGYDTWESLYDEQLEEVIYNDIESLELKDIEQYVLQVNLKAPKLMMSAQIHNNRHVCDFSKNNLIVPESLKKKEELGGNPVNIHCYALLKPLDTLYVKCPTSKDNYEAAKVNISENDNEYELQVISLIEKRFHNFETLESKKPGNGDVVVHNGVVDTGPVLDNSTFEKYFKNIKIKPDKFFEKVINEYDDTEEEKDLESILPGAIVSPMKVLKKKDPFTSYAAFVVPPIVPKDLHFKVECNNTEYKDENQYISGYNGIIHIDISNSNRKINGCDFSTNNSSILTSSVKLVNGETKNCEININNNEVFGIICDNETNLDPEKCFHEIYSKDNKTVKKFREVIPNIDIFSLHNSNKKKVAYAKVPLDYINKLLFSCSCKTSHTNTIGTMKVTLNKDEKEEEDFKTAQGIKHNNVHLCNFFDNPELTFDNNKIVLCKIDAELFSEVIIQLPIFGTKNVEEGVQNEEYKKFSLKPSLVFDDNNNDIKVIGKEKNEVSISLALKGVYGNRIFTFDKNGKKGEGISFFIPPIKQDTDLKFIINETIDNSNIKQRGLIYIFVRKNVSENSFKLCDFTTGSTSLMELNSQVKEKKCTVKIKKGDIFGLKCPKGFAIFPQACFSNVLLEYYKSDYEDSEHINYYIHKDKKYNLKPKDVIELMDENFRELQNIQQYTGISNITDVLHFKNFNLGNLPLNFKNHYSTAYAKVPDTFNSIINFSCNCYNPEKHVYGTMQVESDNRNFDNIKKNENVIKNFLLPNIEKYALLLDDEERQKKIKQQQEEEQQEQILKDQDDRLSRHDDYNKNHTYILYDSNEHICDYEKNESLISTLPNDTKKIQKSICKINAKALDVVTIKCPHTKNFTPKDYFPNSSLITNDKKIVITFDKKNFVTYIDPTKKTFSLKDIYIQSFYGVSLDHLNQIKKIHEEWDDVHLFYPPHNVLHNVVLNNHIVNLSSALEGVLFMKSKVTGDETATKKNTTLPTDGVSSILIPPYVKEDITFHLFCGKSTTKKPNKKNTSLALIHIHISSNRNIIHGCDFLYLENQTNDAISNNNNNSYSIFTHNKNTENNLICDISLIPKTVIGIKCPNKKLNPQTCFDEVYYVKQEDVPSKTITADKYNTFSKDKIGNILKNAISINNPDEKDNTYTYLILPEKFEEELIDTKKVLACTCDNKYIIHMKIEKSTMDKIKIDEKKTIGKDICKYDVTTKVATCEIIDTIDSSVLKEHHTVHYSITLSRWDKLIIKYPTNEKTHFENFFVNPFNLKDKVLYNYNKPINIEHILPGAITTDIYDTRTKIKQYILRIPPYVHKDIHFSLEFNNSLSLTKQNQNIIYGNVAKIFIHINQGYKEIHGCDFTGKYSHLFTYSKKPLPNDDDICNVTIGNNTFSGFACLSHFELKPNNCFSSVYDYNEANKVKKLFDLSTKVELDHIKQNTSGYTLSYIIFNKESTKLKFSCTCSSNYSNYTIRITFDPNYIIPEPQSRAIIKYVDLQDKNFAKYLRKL
row,Binder,binding result
1,B1,binds
2,B2,binds
3,B3,binds
4,B4,binds
5,B5,binds
6,B6,binds
7,B7,binds
8,B8,binds
9,B9,binds
10,B10,binds
11,B11,binds
12,B12,binds

# Target: T1, Pfs230 C1 (Plasmodium falciparum 3D7 (clone of …, UniProt P68874))
# Assay: ELISA
# Details: both partners purified
# T1 sequence (P68874 443-731): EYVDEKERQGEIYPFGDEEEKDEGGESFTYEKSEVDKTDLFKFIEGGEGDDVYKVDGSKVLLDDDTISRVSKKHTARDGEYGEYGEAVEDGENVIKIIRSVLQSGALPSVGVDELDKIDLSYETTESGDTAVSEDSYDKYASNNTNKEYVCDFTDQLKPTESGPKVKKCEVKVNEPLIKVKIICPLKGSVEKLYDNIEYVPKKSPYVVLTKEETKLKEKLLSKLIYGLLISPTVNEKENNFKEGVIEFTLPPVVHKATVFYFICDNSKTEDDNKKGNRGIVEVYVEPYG
row,Binder,binding result
1,B1,binds
2,B2,binds
3,B3,binds
4,B4,binds
5,B5,binds
6,B13,binds
7,B14,binds
8,B15,binds
9,B6,binds
10,B7,binds
11,B8,binds
12,B9,binds
13,B10,binds
14,B11,binds
15,B12,binds

# Target: Pfs230 Pro (Plasmodium falciparum 3D7 (clone of …, UniProt P68874))
# Assay: ELISA
# Details: both partners purified
# Chain of Pfs230 Pro (Plasmodium falciparum 3D7 (P68874 443-590): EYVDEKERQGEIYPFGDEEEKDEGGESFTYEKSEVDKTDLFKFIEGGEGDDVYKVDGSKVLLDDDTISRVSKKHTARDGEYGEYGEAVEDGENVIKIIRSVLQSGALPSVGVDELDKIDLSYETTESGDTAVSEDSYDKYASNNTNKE
row,Binder,binding result
1,B13,binds
2,B14,binds
3,B15,binds

# Target: T1, Pfs230 C1
# Assay: SPR
# Details: both partners purified
row,Binder,binding result
1,B16,binds
